Assays:
[1] = target: 6×His-tagged AvrSr35 (residues 27 to 578) (Puccinia graminis f. sp. tritici); assay: AUC
[2] = target: Sr35 (Triticum monococcum) (UniProt S5ABD6); assay: cryo-EM structure
[3] = target: Sr35 (Triticum monococcum) (UniProt S5ABD6); assay: MST

6×His-tagged AvrSr35 (residues 27 to 578) (natural protein)
stoichiometry N [1]: 2
stoichiometry N [2]: 1
Kd [3]: 7.8 µM
